Data taken from article PMC9131392 (Biomacromolecules, 2021).
Several values for one entry are separate records, joined by “and”; a condition that tells them apart may be missing. Equal entries are not always repeated. Where two headings read alike, the source gives them in different places.

Experiments:
SEC-SAXS [1] = target: the molecule itself; assay: SEC-SAXS
SEC-SAXS [2] = target: the molecule itself; assay: SEC-SAXS; remark: listed apart in the source

B1: C-phycocyanin (αβ) monomer from Spirulina platensis (complex)
chain 1: not shown
chain 2: MFDAFTKVVSQADTRGEMLSTAQIDALSQMVAESNKRLDAVNRITSNASTIVSNAARSLFAEQPQLIAPGGNAYTSRRMAACLRDMEIILRYVTYAVFAGDASVLEDRCLNGLRETYLALGTPGSSVAVGVGKMKEAALAIVNDPAGITPGDCSALASEIASYFDRACAAVS
modifications: open-chain tetrapyrrole chromophore cofactors attached covalently | open-chain tetrapyrrole chromophore cofactors attached covalently
stoichiometry N (SEC-SAXS [1]): 12 and 24
stoichiometry N (SEC-SAXS [2]): 3
